This is an account of results in patent US20230304010A1, “COMPOSITIONS AND METHODS FOR TREATING VIRAL INFECTIONS” (priority 2020, published 2023).

B1: Seq40 (LNCOV-32) (peptide)
peptide: KTFLDKFNHEAEDLFPKWSAFLKEQSTLAQMYGLWRALWRLWRSLWRLLWK
modifications: not checked
B2: Seq39 (LNCOV-31) (peptide)
peptide: EQAKTFLDKFNHEAEDLFPKWSAFLKEQSTLAQMYGLWRALWRLWRSLWRLLWK
modifications: not checked
B3: Seq17 (LNCOV-15)/ADGN-106 nanoparticle complex (peptide)
peptide 1: NGVEGFNKLWRALWRLWRSLWRLLWK
peptide 2: LWRALWRLWRSLWRLLWK
modifications: not checked
B4: Seq20 (LNCOV-24)/ADGN-106 nanoparticle complex (peptide)
peptide 1: SYGFQPTNGVLWRALWRLWRSLWRLLWK
peptide 2: LWRALWRLWRSLWRLLWK
modifications: not checked
B5: Seq21 (LNCOV-13)/ADGN-106 nanoparticle complex (peptide)
peptide 1: GFQPTNGVKLWRALWRLWRSLWRLLWK
peptide 2: LWRALWRLWRSLWRLLWK
modifications: not checked
B6: Seq35 (LNCOV-26)/ADGN-106 nanoparticle complex (protein)
peptide 1: KTFLDKFNHEAEDLFYSLWRALWRLWRSLWRLLWK
peptide 2: LWRALWRLWRSLWRLLWK
modifications: not checked
B7: Seq32 (LNCOV-21)/ADGN-106 nanoparticle complex (protein)
peptide 1: IEEQAKTFLDKFNHEAEDLFYQSLWRALWRLWRSLWRLLWK
peptide 2: LWRALWRLWRSLWRLLWK
modifications: not checked
B8: Seq38 (LNCOV-30)/ADGN-106 nanoparticle complex (protein)
peptide 1: NMTQGFWENPGGPTAWDLGKLWRALWRLWRSLWRLLWK
peptide 2: LWRALWRLWRSLWRLLWK
modifications: not checked

“And” between values parts separate entries of the source, which are not always exact repeats. Equal entries are not always repeated.

One test deals with SARS-CoV-2 Spike (SARS-CoV-2), P0DTC2. The experiment in a line: SARS-CoV-2 Spike:ACE2 inhibitor screening kit (Example 4).
Molecule EQAKTFLDKFNHEAEDLFPKWSAFLKEQSTLAQMYG (modifications not checked) [Seq27 (LNCOV-27)] gave a fold more potent than SBP-1 coupled to ADGN-106 of 3.5 fold and a fold more potent than free SBP-1 of 7 fold.

Consider EQAKTFLDKFNHEAEDLFLWRALWRLWRSLWRLLWK (modifications not checked) [Seq33 (LNCOV-18)], for which the fold more potent than SBP-1 coupled to ADGN-106 worked out at 8 fold and the fold more potent than free SBP-1 was 14 fold.

Regarding KTFLDKFNHEAEDLFPGPKWSAFLKEQSTLAQMYG (modifications not checked) [Seq28 (LNCOV-20)], the fold more potent than SBP-1 coupled to ADGN-106 is 3.5 fold and the fold more potent than free SBP-1 was found to be 7 fold.

For orientation: IC50 means the concentration that inhibits the measured activity by half. A lower IC50 goes with higher potency. Turning to EQAKTFLDKFNHEAEDLF (modifications not checked) [Seq24 (LNCOV-19)], the IC50 was determined as 570 nM.

For the molecule NMTQGFWENPGGPTAWDLGK (modifications not checked) [Seq31 (LNCOV-37)], the IC50 turned out to be 25000 nM.

Another test has the same target. The experiment in a line: ACE2:SARS-CoV-2 Spike kit, ACE2 on plate, Spike-Fc added; competitor ACE2.
In turn, EQAKTFLDKFNHEAEDLFLWRALWRLWRSLWRLLWK (modifications not checked) [Seq33 (LNCOV-18)] showed an IC50 of 18.4 nM.

In turn, KTFLDKFNHEAEDLFPGPKWSAFLKEQSTLAQMYG (modifications not checked) [Seq28 (LNCOV-20)] displayed a concentration for half-maximal inhibition (IC50) of 38.6 nM.

For another test the target is unchanged. Briefly: inhibitor screening kit; ACE2:SARS-CoV-2 Spike (Example 4 assay).
B1 showed an IC50 of 85.4 nM.

KTFLDKFNHEAEDLFYS (modifications not checked) [Seq26 (LNCOV-34)] yielded an IC50 of 2100 nM.

The molecule KTFLDKFNHEAEDLFLWRALWRLWRSLWRLLWK (modifications not checked) [Seq34 (LNCOV-25)] yielded an IC50 greater than 1000 nM.

The molecule EQAKTFLDKFNHEAEDLFPKWSAFLKEQSTLAQMYG (modifications not checked) [Seq27 (LNCOV-27)] yielded an IC50 of 37.4 nM.

Regarding NMTQGFWENSMLTDLWRALWRLWRSLWRLLWK (modifications not checked) [Seq37 (LNCOV-29)], the IC50 turned out to be 645 nM.

For the molecule EQAKTFLDKFNHEAEDLFLWRALWRLWRSLWRLLWK (modifications not checked) [Seq33 (LNCOV-18)], the IC50 was determined as 18.4 nM.

As for NMTQGFWENSMLTD (modifications not checked) [Seq30 (LNCOV-36)], the IC50 was greater than 10000 nM.

Turning to KTFLDKFNHEAEDLFPGPKWSAFLKEQSTLAQMYG (modifications not checked) [Seq28 (LNCOV-20)], the IC50 was found to be 38.6 nM.

Molecule B2 had an IC50 of 68.4 nM.

On to KTFLDKFNHEAEDLFYSLWRALWRLWRSLWRLLWK (modifications not checked) [Seq35 (LNCOV-26)], for which the IC50 came to 728 nM.

TAWDLGKGDFRILWRALWRLWRSLWRLLWK (modifications not checked) [Seq36 (LNCOV-28)]: the IC50 is greater than 1000 nM.

Take TAWDLGKGDFRI (modifications not checked) [Seq29 (LNCOV-35)]: the IC50 was greater than 10000 nM.

NMTQGFWENPGGPTAWDLGK (modifications not checked) [Seq31 (LNCOV-37)] had an IC50 greater than 10000 nM.

Molecule KTFLDKFNHEAEDLF (modifications not checked) [Seq25 (LNCOV-33)] had an IC50 of 1900 nM.

A further test has the same target. Briefly: ACE2:SARS-CoV-2 Spike inhibitor screening kit (Example 3).
On to B1, for which the fold increase of efficiency over the uncoupled peptide (Seq27/Seq28) was determined as 1.4 fold.

Turning to EQAKTFLDKFNHEAEDLFPKWSAFLKEQSTLAQMYG (modifications not checked) [Seq27 (LNCOV-27)], the IC50 was 50 nM, the fold more potent than SBP-1 coupled to ADGN-106 came out at 6 fold and the fold more potent than free SBP-1 came to 15 fold.

In turn, KTFLDKFNHEAEDLFPGPKWSAFLKEQSTLAQMYG (modifications not checked) [Seq28 (LNCOV-20)] returned an IC50 of 50 nM, a fold more potent than SBP-1 coupled to ADGN-106 of 6 fold and a fold more potent than free SBP-1 of 15 fold.

Consider B2, for which the fold increase of efficiency over the uncoupled peptide (Seq27/Seq28) was 1.4 fold.

Turning to NMTQGFWENPGGPTAWDLGK (modifications not checked) [Seq31 (LNCOV-37)], the IC50 amounted to 25000 nM.

A further test has the same target. The experiment in a line: SARS-CoV-2 Spike:ACE2 inhibitor screening kit (Example 4); Table 7 prints 38.6.
For the molecule KTFLDKFNHEAEDLFPGPKWSAFLKEQSTLAQMYG (modifications not checked) [Seq28 (LNCOV-20)], the IC50 was found to be 38.5 nM.

Another test concerns the target ACE2, Q9BYF1.
Test: not given
B3: the IC50 is 3.4 nM and 2.7 nM.

As for B4, the IC50 is 3.7 nM and 8.7 nM.

For B5, the IC50 was 5.2 nM and 11.2 nM.

The target of another test is SARS-CoV-2 Spike (SARS-CoV-2), P0DTC2.
Test: not given
In the case of B6, the IC50 is 217 nM and 55.4 nM.

As to B7, the IC50 was 24.5 nM and 7.2 nM.

Consider B8, for which the IC50 was 91.4 nM and 49.7 nM.

For the next test, the target named is ACE2, Q9BYF1. Briefly: inhibitor screening kit, ADGN-106 nanoparticles (Example 6, section A).
Sequence of ACE2, Q9BYF1 (Q9BYF1 18-740 limits assumed): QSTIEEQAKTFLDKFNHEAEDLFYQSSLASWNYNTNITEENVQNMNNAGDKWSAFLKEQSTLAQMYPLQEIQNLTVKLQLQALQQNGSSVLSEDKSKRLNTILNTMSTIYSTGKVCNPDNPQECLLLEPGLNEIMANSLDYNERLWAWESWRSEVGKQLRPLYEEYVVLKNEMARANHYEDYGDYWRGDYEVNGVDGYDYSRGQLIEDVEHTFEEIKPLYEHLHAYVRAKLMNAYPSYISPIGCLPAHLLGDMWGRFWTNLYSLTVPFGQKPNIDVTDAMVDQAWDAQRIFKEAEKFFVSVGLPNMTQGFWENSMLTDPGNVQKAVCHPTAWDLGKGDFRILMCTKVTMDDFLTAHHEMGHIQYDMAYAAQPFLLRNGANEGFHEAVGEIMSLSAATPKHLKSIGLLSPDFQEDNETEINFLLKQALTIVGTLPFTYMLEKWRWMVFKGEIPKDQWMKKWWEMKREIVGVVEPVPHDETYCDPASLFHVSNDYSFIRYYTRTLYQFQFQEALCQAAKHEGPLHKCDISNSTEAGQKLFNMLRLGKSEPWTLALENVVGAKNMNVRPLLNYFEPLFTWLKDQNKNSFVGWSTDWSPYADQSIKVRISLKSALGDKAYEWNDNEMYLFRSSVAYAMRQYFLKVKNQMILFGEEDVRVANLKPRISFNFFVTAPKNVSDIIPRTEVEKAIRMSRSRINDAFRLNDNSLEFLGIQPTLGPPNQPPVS
Take B3: the fold more potent than SBP-1-ADGN-106/ADGN-106 complex came out at 6 fold and the fold more potent than SBP-1 peptide/ADGN-106 complex is 40 fold.

B4 came in with a fold more potent than SBP-1-ADGN-106/ADGN-106 complex of 6 fold and a fold more potent than SBP-1 peptide/ADGN-106 complex of 40 fold.

In another test the target is SARS-CoV-2 Spike (SARS-CoV-2), P0DTC2.
Test: not given
The source holds these as a separate data set.
EQAKTFLDKFNHEAEDLF (modifications not checked) [Seq24 (LNCOV-19)] showed an IC50 of 570000 nM.

The target in another test is ACE2, Q9BYF1. Briefly: inhibitor screening kit, ADGN-106 nanoparticles (Example 6, section B).
B3 came in with a fold more potent than SBP-1-ADGN-106/ADGN-106 complex of 4 fold and a fold more potent than SBP-1 peptide/ADGN-106 complex of 35 fold.

Another test addresses SARS-CoV-2 Spike (SARS-CoV-2), P0DTC2. The experiment in a line: inhibitor screening kit; SARS-CoV-2 Spike:ACE2 (Example 3 assay).
Molecule B1 had an IC50 of 45.1 nM.

Molecule KTFLDKFNHEAEDLFYS (modifications not checked) [Seq26 (LNCOV-34)] had an IC50 of 1900 nM.

Regarding KTFLDKFNHEAEDLFLWRALWRLWRSLWRLLWK (modifications not checked) [Seq34 (LNCOV-25)], the IC50 was greater than 1000 nM.

The molecule EQAKTFLDKFNHEAEDLFPKWSAFLKEQSTLAQMYG (modifications not checked) [Seq27 (LNCOV-27)] came in with an IC50 of 66.1 nM.

For NMTQGFWENSMLTDLWRALWRLWRSLWRLLWK (modifications not checked) [Seq37 (LNCOV-29)], the IC50 was greater than 1000 nM.

As for EQAKTFLDKFNHEAEDLFLWRALWRLWRSLWRLLWK (modifications not checked) [Seq33 (LNCOV-18)], the IC50 was determined as 178 nM.

In turn, NMTQGFWENSMLTD (modifications not checked) [Seq30 (LNCOV-36)] yielded an IC50 greater than 10000 nM.

As for KTFLDKFNHEAEDLFPGPKWSAFLKEQSTLAQMYG (modifications not checked) [Seq28 (LNCOV-20)], the IC50 turned out to be 58.7 nM.

The molecule B2 showed an IC50 of 55.2 nM.

For KTFLDKFNHEAEDLFYSLWRALWRLWRSLWRLLWK (modifications not checked) [Seq35 (LNCOV-26)], the IC50 worked out at 546 nM.

The molecule TAWDLGKGDFRILWRALWRLWRSLWRLLWK (modifications not checked) [Seq36 (LNCOV-28)] showed an IC50 greater than 1000 nM.

EQAKTFLDKFNHEAEDLF (modifications not checked) [Seq24 (LNCOV-19)] yielded an IC50 of 1300 nM.

Molecule TAWDLGKGDFRI (modifications not checked) [Seq29 (LNCOV-35)] registered an IC50 greater than 10000 nM.

On to NMTQGFWENPGGPTAWDLGK (modifications not checked) [Seq31 (LNCOV-37)], for which the half-maximal inhibitory concentration (IC50) is greater than 10000 nM.

On to KTFLDKFNHEAEDLF (modifications not checked) [Seq25 (LNCOV-33)], for which the IC50 amounted to 2500 nM.
